Laboratory results reported in US20250290928A1, “METHOD, KIT AND DEVICE FOR DETECTING EXTRACELLULAR VESICLES” (priority 2022, published 2025).
Several values for one entry are separate records, joined by “and”; a condition that tells them apart may be missing. Identical values can stand only once. No end group written: not given here. *: point of attachment. 5FAM = O=C1OC2(c3ccc(O)cc3Oc3cc(O)ccc32)c2ccc(C(=O)*)cc21; TQ2 = quencher; TQ3 = quencher

How the values were obtained:
[1] = target: T1, MMP14 in the MDA-MB-231-derived extracellular vesicles (Homo sapiens, UniProt P50281); assay: Digital detection through MMP14 activity of MDA-MB-231-derived extracellular vesicles captured on Tim4-immobilized magnetic particles; type: biochemical; conditions: Table 56, MB231 Present, 24 hours at 23° C.
T1 construct: in terms of intact MMP14 with a molecular weight of 70 kDa

[2] = target: T1, MMP14 in the MDA-MB-231-derived extracellular vesicles; assay: Digital detection through MMP14 activity of MDA-MB-231-derived extracellular vesicles captured on anti-CD9/CD63/CD81 antibody-immobilized particles; type: biochemical; conditions: for Expected value λ / Number of positives / Positive ratio: 5 h; for Expected value λ (MMP14) / Number of positives (MMP14): Example 33, 30° C., 4 h
Method: The concentration of the solution is 10 μg/mL.
For detection of MMP14 activity, 1 mM Custom #2 was diluted with the buffer (4) to prepare a MMP14 detection solution containing 10 μM Custom #2.
The number of the particles was increased 4-fold, and a reaction was allowed to proceed. However, the number and concentration of the particles used to fill the wells are finally the same as those in other Examples.
The concentration of the solution is 10 μg/mL. The solution was subjected to 3-fold serial dilution to prepare standard samples with seven concentrations.
For detection of MMP14 activity, 1 mM Custom #2 and a 100 µM resorufin β-D-galactopyranoside solution were diluted with the buffer (4) to prepare a MMP14 and CD9/CD63/CD81 cocktail detection solution (1) containing 10 μM Custom #2 and 5 μM resorufin β-D-galactopyranoside. In addition, the solution was diluted 2-fold with the buffer (4) to prepare a detection solution (2). Nonfluorescent resorufin β-D-galactopyranoside is degraded by β-galactosidase to produce fluorescent resorufin. In this case, the maximum wavelengths of excitation and fluorescence of resorufin are 570 nm and 585 nm, respectively.
In addition, an antibody-immobilized particle solution was prepared and stored at 4° C. until use, in the same manner as in Example 28 except that Magnosphere MS300/Carboxyl (manufactured by JSR Corporation) (hereinafter abbreviated as “MS300C”) was used as magnetic particles.
For detection of MMP14 activity, 1 mM Custom #2 was diluted with the buffer (4) to prepare a MMP14 detection solution containing 5 μM Custom #2. In addition, 1 mM Custom #2T was diluted with the buffer (4) to prepare a MMP14 detection solution containing 2.5 μM Custom #2T.
An antibody-immobilized particle solution was prepared and stored at 4° C. until use, in the same manner as in Example 28 except that: MS300C was used as magnetic particles; and blocking treatment was performed at 4° C. or room temperature through use of Blockmaster CE210 or CE510 (manufactured by Medical & Biological Laboratories Co., Ltd.) instead of Bead Blocking Buffer (manufactured by Quanterix Corporation).
For detection of MMP14 activity, 1 mM Custom #2 and 1 mM Custom #2T were diluted with the buffer (4) to prepare a MMP14 detection solution containing 5 μM Custom #2 and 2.5 μM Custom #2T serving as the reporter molecules in the same system. […]

[3] = Example 28, 37° C., EV 0 (BG, free of extracellular vesicles)
[4] = Example 28, 37° C., EV 1 a.u. (sample 10 μg/mL)
[5] = Example 31, 4-fold number of particles, 37° C., EV 1 a.u., single image
[6] = Example 31, 37° C., EV 1 a.u., sum of the two images
[7] = Particle MS300C, MB231 Absent, 24 hours of reaction
[8] = Particle MS300C, MB231 Present, 24 hours of reaction
[9] = Particle Simoa, MB231 Absent, 24 hours of reaction
[10] = Particle Simoa, MB231 Present, 24 hours of reaction

[5-FAM]GGPLGLAGGK(TQ2)[OH] (5FAM-GGPLGLAGGK(TQ2)-OH) [Custom #2]
Particle Number of positives ([1]; Particle MS300C): 1,288
Particle Number of positives ([1]; Particle Simoa): 1,234
Extracellular vesicle concentration ([2]; Example 28, 1 μg of protein, 5.0×10^5 particles): 8.0×10^4 extracellular vesicles/μg of protein
Expected value λ [2, 3]: 0.000493
Number of positives [2, 3]: 1
Positive ratio [2, 3]: 0.000493
Expected value λ [2, 4]: 0.1599
Number of positives [2, 4]: 338
Positive ratio [2, 4]: 0.1478
expected value Δλ per particle (value obtained by subtracting BG) ([2]; Example 28, 5 h): 0.1594
Extracellular vesicle concentration ([2]; Example 31, 0.5 μg of protein, 2.0×10^6 particles): 1.8×10^5 extracellular vesicles/μg of protein
Expected value λ [2, 5]: 0.04458 and 0.04511
Number of positives [2, 5]: 402 and 410
Positive ratio [2, 5]: 0.0436 and 0.04411
Expected value λ [2, 6]: 0.04484
Number of positives [2, 6]: 812
Positive ratio [2, 6]: 0.04386
expected value Δλ per particle (value obtained by subtracting BG) ([2]; Example 31, 5 h, sum of the two images): 0.04435
Expected value λ (MMP14) ([2]; EV 0 (BG)): 0.00428
Number of positives (MMP14) ([2]; EV 0 (BG)): 9
Expected value λ (MMP14) ([2]; EV X1 (sample 10 μg/mL)): 0.139
Number of positives (MMP14) ([2]; EV X1 (sample 10 μg/mL)): 298
Expected value λ (MMP14) ([2]; EV X1/3): 0.0829
Number of positives (MMP14) ([2]; EV X1/3): 218
Expected value λ (MMP14) ([2]; EV X1/9): 0.0569
Number of positives (MMP14) ([2]; EV X1/9): 162
Expected value λ (MMP14) ([2]; EV X1/27): 0.0315
Number of positives (MMP14) ([2]; EV X1/27): 78
Expected value λ (MMP14) ([2]; EV X1/81): 0.0118
Number of positives (MMP14) ([2]; EV X1/81): 19
Expected value λ (MMP14) ([2]; EV X1/243): 0.0108
Number of positives (MMP14) ([2]; EV X1/243): 20
Expected value λ (MMP14) ([2]; EV X1/729): 0.0120
Number of positives (MMP14) ([2]; EV X1/729): 22
extracellular vesicles detected with MMP14 present in wells (particles) containing extracellular vesicles detected with at least any one of CD9, CD63, and CD81 ([2]; Example 33, concentration [a.u.] of x1, multiplex with resorufin β-D-galactopyranoside): 99.7%
Extracellular vesicle concentration [2, 7]: 0.0113 ×10^5/μg of protein
Particle Expected value λ [2, 7]: 0.00226
Extracellular vesicle concentration [2, 8]: 1.4495 ×10^5/μg of protein
Particle Expected value λ [2, 8]: 0.2899
Extracellular vesicle concentration [2, 9]: 0.0061 ×10^5/μg of protein
Particle Expected value λ [2, 9]: 0.00122
Extracellular vesicle concentration [2, 10]: 1.5232 ×10^5/μg of protein
Particle Expected value λ [2, 10]: 0.3046

TAMRA-GGPLGLAGGK(TQ3) ({TAMRA}-GGPLGLAGGK(TQ3)) [Custom #2T]
Particle Number of positives ([1]; Particle MS300C): 1,460
Particle Number of positives ([1]; Particle Simoa): 359
Extracellular vesicle concentration [2, 7]: 0.01 ×10^5/μg of protein
Particle Expected value λ [2, 7]: 0.002
Extracellular vesicle concentration [2, 8]: 1.4687 ×10^5/μg of protein
Particle Expected value λ [2, 8]: 0.2937
Extracellular vesicle concentration [2, 9]: 0.0098 ×10^5/μg of protein
Particle Expected value λ [2, 9]: 0.00196
Extracellular vesicle concentration [2, 10]: 0.3874 ×10^5/μg of protein
Particle Expected value λ [2, 10]: 0.07748
